Results: paper PMC4553633, “RA Acts in a Coherent Feed-Forward Mechanism with Tbx5 to Control Limb Bud Induction and Initiation”

Target: T1, flag-RARα (mRARα);myc-RXRα (mRXRα) (Mus musculus;Mus musculus, UniProt P11416;P28700 1-462;1-467, |)
T1 sequence 1: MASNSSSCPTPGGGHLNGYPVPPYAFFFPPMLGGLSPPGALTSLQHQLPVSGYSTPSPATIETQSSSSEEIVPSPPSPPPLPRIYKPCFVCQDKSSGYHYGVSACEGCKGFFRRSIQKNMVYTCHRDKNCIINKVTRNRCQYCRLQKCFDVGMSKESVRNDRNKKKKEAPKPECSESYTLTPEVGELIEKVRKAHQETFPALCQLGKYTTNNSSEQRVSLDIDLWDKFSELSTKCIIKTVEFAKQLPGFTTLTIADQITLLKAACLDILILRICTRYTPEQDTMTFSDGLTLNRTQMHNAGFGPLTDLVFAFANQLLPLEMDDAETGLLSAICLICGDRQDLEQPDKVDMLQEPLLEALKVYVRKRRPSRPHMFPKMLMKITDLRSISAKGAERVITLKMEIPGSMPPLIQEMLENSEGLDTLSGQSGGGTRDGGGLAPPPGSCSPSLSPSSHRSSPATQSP
T1 sequence 2: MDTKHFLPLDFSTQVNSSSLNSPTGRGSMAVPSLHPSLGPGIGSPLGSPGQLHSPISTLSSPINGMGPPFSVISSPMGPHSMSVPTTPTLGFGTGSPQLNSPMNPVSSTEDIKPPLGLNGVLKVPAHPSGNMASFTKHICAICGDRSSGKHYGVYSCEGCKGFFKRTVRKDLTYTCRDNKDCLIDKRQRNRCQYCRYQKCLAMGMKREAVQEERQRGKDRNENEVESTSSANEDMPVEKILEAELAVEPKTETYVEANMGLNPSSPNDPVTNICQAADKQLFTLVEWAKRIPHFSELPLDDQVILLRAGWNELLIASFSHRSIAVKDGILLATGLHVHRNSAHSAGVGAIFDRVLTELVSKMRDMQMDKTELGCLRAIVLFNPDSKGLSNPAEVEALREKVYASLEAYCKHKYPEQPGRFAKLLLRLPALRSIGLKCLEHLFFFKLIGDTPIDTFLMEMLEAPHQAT
Assay: EMSA; EMSA essentially as Forman et al. 1992 and Shtutman et al. 1999; buffer, salt, pH and temperature not stated
Settings: protein: ivt;ivt; tags: N-terminal flag;N-terminal myc; copies: 1;1; blunt (complement S6 printed; duplex implied)

B1: RARE3 mut (dsDNA)
DNA 1: CCGGCAGCTGCGATGACTGCTCCCTCCTTA
DNA 2: TAAGGAGGGAGCAGTCATCGCAGCTGCCGG
- binding result: no binding
